# What was measured:
# [1] = target: β1 integrin (human (endogenous in peripheral blood monocytes)) (UniProt P05556)
# [2] = target: β3 integrin (human (endogenous in peripheral blood monocytes)) (UniProt P05106)
# Sequence of β3 integrin (human (endogenous in peripheral blood monocytes)) (P05106 27-788): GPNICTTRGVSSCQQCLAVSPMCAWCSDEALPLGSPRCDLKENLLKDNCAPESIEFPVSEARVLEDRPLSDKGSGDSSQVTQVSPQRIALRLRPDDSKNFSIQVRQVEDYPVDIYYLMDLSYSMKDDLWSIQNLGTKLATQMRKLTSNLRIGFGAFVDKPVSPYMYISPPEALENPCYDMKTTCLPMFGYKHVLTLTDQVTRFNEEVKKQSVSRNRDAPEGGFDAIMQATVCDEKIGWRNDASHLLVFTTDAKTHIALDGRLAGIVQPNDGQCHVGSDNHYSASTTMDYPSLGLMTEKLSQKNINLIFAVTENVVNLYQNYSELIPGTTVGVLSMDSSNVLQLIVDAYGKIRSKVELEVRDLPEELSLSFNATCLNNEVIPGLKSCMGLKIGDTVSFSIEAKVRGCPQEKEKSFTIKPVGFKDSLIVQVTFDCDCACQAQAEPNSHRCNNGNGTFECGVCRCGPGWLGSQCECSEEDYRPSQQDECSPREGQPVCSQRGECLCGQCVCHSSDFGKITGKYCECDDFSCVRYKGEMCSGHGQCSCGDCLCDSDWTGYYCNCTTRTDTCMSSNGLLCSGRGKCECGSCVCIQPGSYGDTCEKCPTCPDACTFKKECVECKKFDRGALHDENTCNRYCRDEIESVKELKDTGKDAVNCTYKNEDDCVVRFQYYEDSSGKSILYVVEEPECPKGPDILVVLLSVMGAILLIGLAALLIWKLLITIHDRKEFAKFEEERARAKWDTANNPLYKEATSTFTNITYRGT
# Sequence of β1 integrin (human (endogenous in peripheral blood monocytes)) (P05556 21-798): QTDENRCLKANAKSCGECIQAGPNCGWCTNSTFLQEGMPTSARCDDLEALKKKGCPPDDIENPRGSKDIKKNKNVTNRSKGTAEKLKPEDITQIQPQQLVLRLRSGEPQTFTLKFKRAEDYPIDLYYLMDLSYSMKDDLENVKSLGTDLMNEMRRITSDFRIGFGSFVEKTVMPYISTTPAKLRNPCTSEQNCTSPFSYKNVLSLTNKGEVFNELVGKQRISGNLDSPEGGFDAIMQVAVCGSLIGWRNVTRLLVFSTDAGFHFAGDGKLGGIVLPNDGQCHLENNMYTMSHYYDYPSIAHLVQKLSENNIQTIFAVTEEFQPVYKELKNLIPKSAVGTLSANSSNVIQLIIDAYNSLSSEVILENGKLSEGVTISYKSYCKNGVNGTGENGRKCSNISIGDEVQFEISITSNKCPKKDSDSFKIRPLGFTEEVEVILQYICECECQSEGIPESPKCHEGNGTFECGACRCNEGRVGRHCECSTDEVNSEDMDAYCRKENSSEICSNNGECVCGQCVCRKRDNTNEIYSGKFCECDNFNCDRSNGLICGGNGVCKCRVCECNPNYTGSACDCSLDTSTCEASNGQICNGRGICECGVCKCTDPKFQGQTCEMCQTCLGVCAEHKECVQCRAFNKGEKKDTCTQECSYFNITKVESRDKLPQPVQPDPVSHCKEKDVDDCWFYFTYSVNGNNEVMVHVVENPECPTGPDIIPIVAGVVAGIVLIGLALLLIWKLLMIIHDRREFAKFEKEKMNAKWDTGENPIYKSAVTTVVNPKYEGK
substance,measurement,setting,value
HCMV gH/gL/UL128-131 complex of BADrUL131 (from UniProt P12824 24-743; P16832 31-278; P16837 1-171; P16772 1-214),inhibition of BADrUL131 entry into monocytes (internalized vDNA) after pretreatment with 5 µg/ml function blocking anti-β1 integrin antibody,[1],75%
same,inhibition of BADrUL131 entry into monocytes (internalized vDNA) after pretreatment with 5 µg/ml function blocking anti-β3 integrin antibody,[2],40%
